The results in this text go back to article doi:10.1101/2023.09.26.559624 (bioRxiv, 2023).

Changes are numbered by the printed parent chain.

Experiment [1] has as its target T1, SASH1-SPIDER (396-564) S519N (human, UniProt O94885 396-564, S519N).
T1 sequence (looked up): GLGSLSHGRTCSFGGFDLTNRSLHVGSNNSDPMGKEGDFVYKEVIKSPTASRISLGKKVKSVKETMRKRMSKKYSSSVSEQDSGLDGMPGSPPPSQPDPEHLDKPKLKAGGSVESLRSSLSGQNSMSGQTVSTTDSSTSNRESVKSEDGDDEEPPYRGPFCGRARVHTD
The experiment can be described thus: NMR titration.

Experiment [2] has as its target T2, human non-variant SASH1-SPIDER (396-564) (human, UniProt O94885 396-564).
T2 sequence (looked up): T1 sequence (looked up) with N124S
As to the kind of experiment: MST.

B1: ARC4 domain of TNKS2 with flanking residues (488-649) (domain or fragment, UniProt Q9H2K2 488-649, looked up)
chain: GNSEADRQLLEAAKAGDVETVKKLCTVQSVNCRDIEGRQSTPLHFAAGYNRVSVVEYLLQHGADVHAKDKGGLVPLHNACSYGHYEVAELLVKHGAVVNVADLWKFTPLHEAAAKGKYEICKLLLQHGADPTKKNRDGNTPLDLVKDGDTDIQDLLRGDAAL
modifications: red fluorescent dye NT-647 Maleimide (in the MST experiment only)
On to B1, for which, in experiment [1], the “fold attenuation of affinity against N.V.” value is about 10 fold. The dissociation constant Kd in experiment [2] turned out to be 1700 ± 400 nM.
